B1: 22224 (protein)
chain: MALPVTALLLPLALLLHAARPDIQMTQSPSSLSASVGDRVTITCKASDHINNWLAWYQQKPGQAPKLLIYGATTLETGVPSRFSGSGSGTDYTLTISSLQPEDFATYYCQQSWNTPWTFGQGTKLEIKRLEDLKNVFPPEVAVFEPSEAEISHTQKATLVCLATGFYPDHVELSWWVNGKEVHSGVCTDPQPLKEQPALNDSRYCLSSRLRVSATFWQNPRNHFRCQVQFYGLSENDEWTQDRAKPVTQIVSAEAWGRADCGFTSESYQQGVLSATILYEILLGKATLYAVLVSALVLMAMVKRKDSRGRAKRSGSGATNFSLLKQAGDVEENPGPTSATMDWIWRILFLVGAATGAHSGPEVQLVESGGGLVQAGGSLRLSCAASGRTFTMGWFRQAPGKEREFVAAISLSPTLAYYADSVKGRFTISRDNAKNTVVLQMNSLKPEDTALYYCAADRKSVMSIRPDYWGQGTQVTVSSGSALRRLLGLFGFEQVQLQQPGAELVKPGASVKMSCKASGYAFSSYWINWMKQKPGQGLEWIGQIYPGDGDTNYNGKFKGRATLTADTSSSTAYMQLSSLTSEDSAVYFCARSITTVVGCAMDYWGQGTSVTVSSTRIQNPDPAVYQLRDSKSSDKSVCLFTDFDSQTNVSQSKDSDVYITDKCVLDMRSMDFKSNSAVAWSNKSDFACANAFNNSIIPEDTFFPSPESSCDVKLVEKSFETDTNLNFQNLSVIGFRILLLKVAGFNLLMTLRLWSSRAKRSGSGVKQTLNFDLLKLAGDVESNPGPSRGHMTEYKPTVRLATRDDVPRAVRTLAAAFADYPATRHTVDPDRHIERVTELQELFLTRVGLDIGKVWVADDGAAVAVWTTPESVEAGAVFAEIGPRMAELSGSRLAAQQQMEGLLAPHRPKEPAWFLATVGVSPDHQGKGLGSAVVLPGVEAAERAGVPAFLETSAPRNLPFYERLGFTVTADVEVPEGPRTWCMTRKPGA
B2: 22220 (protein)
chain: MALPVTALLLPLALLLHAARPACEVQLLESGGGLIQPGGSLRLSCAASGFTFSSHAMTWVRQAPGKGLEWVSAISGSGDYTHYADSVKGRFTISRDNSKNTVYLQMNSLRAEDSAVYYCAKDEDGGSLLGHRGQGTLVTVSSGTGAIGFLRTAEFDIQMTQSPSSLSASVGDRVTITCKASDHINNWLAWYQQKPGQAPKLLIYGATTLETGVPSRFSGSGSGTDYTLTISSLQPEDFATYYCQQSWNTPWTFGQGTKLEIKRLEDLKNVFPPEVAVFEPSKAEIAHTQKATLVCLATGFYPDHVELSWWVNGKEVHSGVCTDPQPLKEQPALNDSRYCLSSRLRVSATFWQNPRNHFRCQVQFYGLSENDEWTQDRAKPVTQIVSAEAWGRADCGITSASYHQGVLSATILYEILLGKATLYAVLVSALVLMAMVKRKDSRGRAKRSGSGATNFSLLKQAGDVEENPGPTSATMDWIWRILFLVGAATGAHSGPEVQLVESGGGLVQAGGSLRLSCAASGRTFSMGWFRQAPGKEREFVAAITYSGGSPYYADSVKGRFTISRDNAKNTVYLQMNSLKPEDTAVYYCAANPTYGSDWNAENWGQGTQVTVSSGSGGGGSGGGGSGGGGSFEQVQLQQPGAELVKPGASVKMSCKASGYAFSSYWINWMKQKPGQGLEWIGQIYPGDGDTNYNGKFKGRATLTADTSSSTAYMQLSSLTSEDSAVYFCARSITTVVGCAMDYWGQGTSVTVSSTRIQNPDPAVYQLRDSKSSDKSVCLFTDFDSQTNVSQSKDSDVYITDKCVLDMRSMDFKSNSAVAWSNKSDFACANAFNNSIIPEDTFFPSPESSCDVKLVEKSFETDTNLNFQNLSVIGFRILLLKVAGFNLLMTLRLWSSRAKRSGSGVKQTLNFDLLKLAGDVESNPGPSRGHMTEYKPTVRLATRDDVPRAVRTLAAAFADYPATRHTVDPDRHIERVTELQELFLTRVGLDIGKVWVADDGAAVAVWTTPESVEAGAVFAEIGPRMAELSGSRLAAQQQMEGLLAPHRPKEPAWFLATVGVSPDHQGKGLGSAVVLPGVEAAERAGVPAFLETSAPRNLPFYERLGFTVTADVEVPEGPRTWCMTRKPGA
B3: 22245 (protein)
chain: MALPVTALLLPLALLLHAARPACEVQLLESGGGLIQPGGSLRLSCAASGFTFSSHAMTWVRQAPGKGLEWVSAISGSGDYTHYADSVKGRFTISRDNSKNTVYLQMNSLRAEDSAVYYCAKDEDGGSLLGHRGQGTLVTVSSGTGAIGFLRTAEFDIQMTQSPSSLSASVGDRVTITCKASDHINNWLAWYQQKPGQAPKLLIYGATTLETGVPSRFSGSGSGTDYTLTISSLQPEDFATYYCQQSWNTPWTFGQGTKLEIKRLEDLKNVFPPEVAVFEPSKAEIAHTQKATLVCLATGFYPDHVELSWWVNGKEVHSGVCTDPQPLKEQPALNDSRYCLSSRLRVSATFWQNPRNHFRCQVQFYGLSENDEWTQDRAKPVTQIVSAEAWGRADCGITSASYHQGVLSATILYEILLGKATLYAVLVSALVLMAMVKRKDSRGRAKRSGSGATNFSLLKQAGDVEENPGPTSATMDWIWRILFLVGAATGAHSGPEVQLVESGGGLVQAGGSLRLSCAASGRTFSMGWFRQAPGKEREFVAAITYSGGSPYYADSVKGRFTISRDNAKNTVYLQMNSLKPEDTAVYYCAANPTYGSDWNAENWGQGTQVTVSSGSGGGGSGGGGSGGGGSFEQVQLQQPGAELVKPGASVKMSCKASGYAFSSYWINWMKQKPGQGLEWIGQIYPGDGDTNYNGKFKGRATLTADTSSSTAYMQLSSLTSEDSAVYFCARSITTVVGCAMDYWGQGTSVTVSSTRIQNPDPAVYQLRDSKSSDKSVCLFTDFDSQTNVSQSKDSDVYITDKCVLDMRSMDFKSNSAVAWSNKSDFACANAFNNSIIPEDTFFPSPESSCDVKLVEKSFETDTNLNFQNLSVIGFRILLLKVAGFNLLMTLRLWSSRAKRSGSGVKQTLNFDLLKLAGDVESNPGPSRGHMTEYKPTVRLATRDDVPRAVRTLAAAFADYPATRHTVDPDRHIERVTELQELFLTRVGLDIGKVWVADDGAAVAVWTTPESVEAGAVFAEIGPRMAELSGSRLAAQQQMEGLLAPHRPKEPAWFLATVGVSPDHQGKGLGSAVVLPGVEAAERAGVPAFLETSAPRNLPFYERLGFTVTADVEVPEGPRTWCMTRKPGA
B4: 22217 (protein)
chain: MALPVTALLLPLALLLHAARPACEVQLLESGGGLIQPGGSLRLSCAASGFTFSSHAMTWVRQAPGKGLEWVSAISGSGDYTHYADSVKGRFTISRDNSKNTVYLQMNSLRAEDSAVYYCAKDEDGGSLLGHRGQGTLVTVSSGTGAVVRGAEFDIQMTQSPSSLSASVGDRVTITCKASDHINNWLAWYQQKPGQAPKLLIYGATTLETGVPSRFSGSGSGTDYTLTISSLQPEDFATYYCQQSWNTPWTFGQGTKLEIKRLEDLKNVFPPEVAVFEPSKAEIAHTQKATLVCLATGFYPDHVELSWWVNGKEVHSGVCTDPQPLKEQPALNDSRYCLSSRLRVSATFWQNPRNHFRCQVQFYGLSENDEWTQDRAKPVTQIVSAEAWGRADCGITSASYHQGVLSATILYEILLGKATLYAVLVSALVLMAMVKRKDSRGRAKRSGSGATNFSLLKQAGDVEENPGPTSATMDWIWRILFLVGAATGAHSGPEVQLVESGGGLVQAGGSLRLSCAASGRTFSMGWFRQAPGKEREFVAAITYSGGSPYYADSVKGRFTISRDNAKNTVYLQMNSLKPEDTAVYYCAANPTYGSDWNAENWGQGTQVTVSSGSGGGGSGGGGSGGGGSFEQVQLQQPGAELVKPGASVKMSCKASGYAFSSYWINWMKQKPGQGLEWIGQIYPGDGDTNYNGKFKGRATLTADTSSSTAYMQLSSLTSEDSAVYFCARSITTVVGCAMDYWGQGTSVTVSSTRIQNPDPAVYQLRDSKSSDKSVCLFTDFDSQTNVSQSKDSDVYITDKCVLDMRSMDFKSNSAVAWSNKSDFACANAFNNSIIPEDTFFPSPESSCDVKLVEKSFETDTNLNFQNLSVIGFRILLLKVAGFNLLMTLRLWSSRAKRSGSGVKQTLNFDLLKLAGDVESNPGPSRGHMTEYKPTVRLATRDDVPRAVRTLAAAFADYPATRHTVDPDRHIERVTELQELFLTRVGLDIGKVWVADDGAAVAVWTTPESVEAGAVFAEIGPRMAELSGSRLAAQQQMEGLLAPHRPKEPAWFLATVGVSPDHQGKGLGSAVVLPGVEAAERAGVPAFLETSAPRNLPFYERLGFTVTADVEVPEGPRTWCMTRKPGA

Columns and labels:
Assay type in all cases: cell-based
RAJI cells = test: JNG assay, co-culture with RAJI cells; conditions: JNG cells expressing construct, co-culture with Raji
Method in brief: (§1)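 Jurkat-NFAT-GFP (JNG) cells stably expressing SAR constructs via lentiviral transduction and puromycin/blasticidin selection were cocultured with target cells at E:T ~1:2 for ~4–18 h. NFAT-driven GFP was measured by FACS versus parental JNG cells; scores +/- to 5+ denote ~5–50% GFP-positive cells.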

RAJI-CD19-KO cells = test: JNG assay, co-culture with RAJI-CD19-KO cells; conditions: co-culture with Raji-CD19-KO
Method in brief: as §1

L363 cells = test: JNG assay, co-culture with L363 cells; conditions: co-culture with L363
Method in brief: as §1

U266 cells = test: JNG NFAT-GFP induction on co-culture with U266
Nalm6 cells = test: JNG assay, co-culture with Nalm6 cells; conditions: co-culture with Nalm6
Method in brief: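 Jurkat NFAT-GFP reporter cells stably expressing lentivirally transduced SARs, drug-selected where possible, were co-cultured with target cells at E:T ≈1:2 for ~4–18 h. GFP measured by FACS; scored +/- to 5+ (~5–50% GFP+ cells) above parental reporter cells.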

Molecule | NFAT-GFP ASSAY: Raji (RAJI cells) | NFAT-GFP ASSAY: Raji-CD19-KO (RAJI-CD19-KO cells) | NFAT-GFP ASSAY: L363 (L363 cells) | NFAT-GFP ASSAY: U266 (U266 cells) | NFAT-GFP ASSAY: Nalm6 (Nalm6 cells)
B1 | + (refer to approximately 5%, 10%, 20%, 30%, 40% and 50% GFP positive cells) | 2+ (refer to approximately 5%, 10%, 20%, 30%, 40% and 50% GFP positive cells) | 2+ (refer to approximately 5%, 10%, 20%, 30%, 40% and 50% GFP positive cells) | 4+ (refer to approximately 5%, 10%, 20%, 30%, 40% and 50% GFP positive cells) | 
B2 |  | + (refer to approximately 5%, 10%, 20%, 30%, 40% and 50% GFP positive cells) | +/- (refer to approximately 5%, 10%, 20%, 30%, 40% and 50% GFP positive cells) | + (refer to approximately 5%, 10%, 20%, 30%, 40% and 50% GFP positive cells) | +/- (refer to approximately 5%, 10%, 20%, 30%, 40% and 50% GFP positive cells)
B3 |  | + (refer to approximately 5%, 10%, 20%, 30%, 40% and 50% GFP positive cells) | +/- (refer to approximately 5%, 10%, 20%, 30%, 40% and 50% GFP positive cells) | + (refer to approximately 5%, 10%, 20%, 30%, 40% and 50% GFP positive cells) | +/- (refer to approximately 5%, 10%, 20%, 30%, 40% and 50% GFP positive cells)
B4 | + (refer to approximately 5%, 10%, 20%, 30%, 40% and 50% GFP positive cells) | 3+ (refer to approximately 5%, 10%, 20%, 30%, 40% and 50% GFP positive cells) | 3+ (refer to approximately 5%, 10%, 20%, 30%, 40% and 50% GFP positive cells) | 4+ (refer to approximately 5%, 10%, 20%, 30%, 40% and 50% GFP positive cells) | 4+ (refer to approximately 5%, 10%, 20%, 30%, 40% and 50% GFP positive cells)

Source: patent US20230212319A1, “NOVEL ANTIGEN BINDING DOMAINS AND SYNTHETIC ANTIGEN RECEPTORS INCORPORATING THE SAME” (University of Southern California, priority 2020, published 2023)
